Results on two proteins are retold here after paper PMC5193401, “Redox Balance in Lactobacillus reuteri DSM20016: Roles of Iron-Dependent Alcohol Dehydrogenases in Glucose/ Glycerol Metabolism” (PLoS ONE, 2016).

Holding throughout (experiment): purified protein
Holding throughout (assay type): biochemical, Limosilactobacillus reuteri

Substrate in data set [1]: O=CCCO
The following applies: 3-HPA reduction (standard 0.2 mM NADH), 50 mM potassium phosphate pH 7.0, 30°C, 3-HPA produced from glycerol by resting cells (equilibrates with hydrate and dimer), pH 7.0.

Substrate in data set [2]: NC(=O)c1ccc[n+]([C@@H]2O[C@H](COP(=O)(O)OP(=O)(O)OC[C@H]3O[C@@H](n4cnc5c(N)ncnc54)[C@H](O)[C@@H]3O)[C@@H](O)[C@H]2O)c1
The following applies: 1,3-PDO oxidation (standard 500 mM 1,3-PDO), 50 mM Tris-HCl pH 9.0, 30°C, pH 9.0, varied: cofactor.

Substrate in data set [3]: NC(=O)C1=CN([C@@H]2O[C@H](COP(=O)(O)OP(=O)(O)OC[C@H]3O[C@@H](n4cnc5c(N)ncnc54)[C@H](O)[C@@H]3O)[C@@H](O)[C@H]2O)C=CC1
The following applies: 3-HPA reduction (standard 100 mM 3-HPA), 50 mM potassium phosphate pH 7.0, 30°C, pH 7.0, varied: cofactor.

B1: PduQ-His6 (Limosilactobacillus reuteri subsp. reuteri) (protein)
chain: MEKYSMPTRIYSGTDSLKELETLNNERILLVCDSFLPGSDTLKEIESHIKDNNKCEIFSDVVPDPPLDKIMEGVQQFLKLKPTIVIGIGGGSALDTGKGIRFFGEKLGKCKINEYIAIPTTSGTGSEVTNTAVISDTKEHRKIPILEDYLTPDCALLDPKLVMTAPKSVTAYSGMDVLTHALESLVAKDANLFTVALSEEAIDAVIKHLVECYRHGDNVDARKIVHEASNIAGTAFNIAGLGICHSIAHQLGANFHVPHGLANTMLLPYVIAYNAEHSEEALHKFAIAAKKAGIAAPGVGDRLAVKRLIAKIREMARQMNCPMTLQAFGVDPAKAEELADTVVANAKKDATFPGNPVVPSDNDLKMVYEAIIR
notes: full length 373 residues (40361 Da), His6 tag from pET21a kept, E. coli BL21(DE3), Ni-NTA purified
With B1, in data set [1], the Km was determined as 14500 ± 1700 µM, the maximum rate (Vmax) was determined as 14.8 µmol/min/mg, the turnover number (kcat) was 9.9 ± 0.6 s⁻¹ and the kcat/Km was 640 M⁻¹ s⁻¹. Further, in data set [2], the Km stood at 800 ± 100 µM, the Vmax worked out at 3.9 µmol/min/mg, the catalytic constant (kcat) amounted to 2.6 ± 0.1 s⁻¹ and the specificity constant (kcat/Km) was found to be 3490 M⁻¹ s⁻¹. Further, in data set [3], the Michaelis-Menten constant (Km) was determined as 40 ± 10 µM, the maximal velocity (Vmax) is 12.6 µmol/min/mg, the kcat amounted to 8.5 ± 0.5 s⁻¹ and the catalytic efficiency (kcat/Km) amounted to 237000 M⁻¹ s⁻¹.

B2: ADH7-His6 (Limosilactobacillus reuteri subsp. reuteri) (protein)
chain: MNRQFDFLMPSVNFFGPGVIAKIGDRAKMLNMHKPLIVTTEGLSKIDNGPVKQTVASLEKAGVDYAVFTGAEPNPKIRNVQAGKKMYQDENCDSIITVGGGSAHDCGKGIGIVLTNGDDISKLAGIETLKNPLPPLMAVNTTAGTGSELTRHAVITNEKTHLKFVVVSWRNIPLVSFNDPMLMLDIPKDITAATGCDAFVQAIEPYVSVDHNPITDSQCKEAIQLIQTALPEVVANGHNIEARTKMVEAEMLAGMAFNNANLGYVHAMAHQLGGQYDAPHGVCCALLLTTVEEYNLIACPERFAELAKVMGFDTTGLTLYEAAQKSIDGMREMCRLVGIPSSIKEIGAKPEDFEMMAKNALKDGNAFSNPRKGTVEDIVKLYQKAYDGIY
notes: full length 390 residues (42181 Da), His6 tag from pET21a kept, E. coli BL21(DE3), Ni-NTA purified
Take B2: in data set [1], the Km was determined as 9900 ± 1100 µM, the Vmax was 29.3 µmol/min/mg, the kcat is 13.2 ± 3 s⁻¹ and the kcat/Km came to 1330 M⁻¹ s⁻¹. Besides, in data set [2], the Michaelis-Menten constant (Km) is 1200 ± 100 µM, the maximal velocity (Vmax) turned out to be 4.1 µmol/min/mg, the turnover number (kcat) was found to be 3.2 ± 0.9 s⁻¹ and the kcat/Km turned out to be 2670 M⁻¹ s⁻¹. Further, in data set [3] (error exceeds value), the Michaelis-Menten constant (Km) stood at 40 ± 120 µM, the maximum rate (Vmax) stood at 33 µmol/min/mg, the kcat was determined as 11.3 ± 1.9 s⁻¹ and the kcat/Km amounted to 282000 M⁻¹ s⁻¹.
